# The supplement of paper PMC10065799, “High-throughput profiling of sequence recognition by tyrosine kinases and SH2 domains using bacterial peptide display” (eLife, 2023)
# Test system: c-Src
# Assay: phosphorylation enrichment, bacterial display (enrichment ratio); higher = better substrate or ligand; peptides without Tyr show the background
# 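Throughout, for SH2 binding enrichment of the phosphorylated peptide, bacterial display: peptide library displayed on the E. coli surface as eCPX fusions, selected cells deep-sequenced, score is each peptide's frequency after selection divided by its frequency in the input.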
# 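Throughout, for phosphorylation enrichment, bacterial display: 11-residue human phosphosite peptides and single-mutation variants displayed on the E. coli surface, counted by deep sequencing, each peptide's frequency after selection divided by its frequency in the unselected input library; frequency after pTyr selection over input frequency; kinase dosed for 20-30% of maximal phosphorylation in three min.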
row,Sequence,phosphorylation enrichment
1,VYLGAYDRFLP [SLC22A5_Y486],4.49
2,FLGEEYVKAVG [TF_Y674_YF],0.404
3,DLEKTYNTYRS [B4GALNT2_Y538_A533D],1.03
4,MRNDLYQTPLH [NFKB1_Y582],1.94
5,KHCEDYVCSFN [DSC1_Y846_YF],0.829
6,GVYSRHFTTYD [CLCA1_Y661_Y661H],0.768
7,PSARTYCFKQE [KLHDC9_Y175_YF],0.494
8,LFHENYNAGTF [CFI_Y421_I416L_YF],0.649
9,ELAKYYKLHHI [AK7_Y391_N389K],0.478
10,PEVSGYCHCAD [TG_Y234],1.2
11,DPNQQYFIAMD [TBX15_Y159_H156N_YF],0.482
12,GSERRYTREGG [PTPRN2_Y139_S140T],0.482
13,SQQTFYPVSNM [ABCD1_Y181_R182P_YF],0.398
14,EFKDAYKFAAD [BRDT_Y335_YF],0.447
15,KTSGNYLAVTG [WDR19_Y28],0.42
16,TFGVAYRAKDK [CDK11B_Y453_V452A_YF],0.282
17,SGGSSYGSGGC [KRT1_Y532_G537C],0.502
18,PTDCVYVMPTV [MYO7A_Y1668_S1666C],4.95
19,TLQSMYGCDLG [HLA-B_Y123_V127L],0.597
20,SLDHPFEKPRK [INAVA_Y333_Y333F],0.436
21,GRTNICKNKKD [SLC26A3_Y520_Y520C],0.437
22,AGADGYDFLAP [FOXL2_Y186_G187D_YF],0.555
23,VISNAYVDLAP [HSD17B4_Y602],0.435
24,PPNSPYIGSSP [KCNT1_Y740],0.352
25,CEQELYSQLVY [WAS_Y102_W97C],5.28
26,FFTEEYVRAHP [DOCK2_Y1555_D1558A],0.485
27,HRGFLYLAIEF [TEK_Y899_Y897F_YF],0.687
28,AYRHGYFDEEM [PLEC_Y2971_R2969H],0.461
29,KGIQLYDTPYE [SHB_Y297],1.24

# Biological target: Grb2 SH2 (UniProt P62993)
# Assay: SH2 binding enrichment of the phosphorylated peptide, bacterial display (enrichment ratio); higher = better substrate or ligand; peptides without Tyr show the background
row,Sequence,SH2 binding enrichment
1,DLEKTYNTYRS [B4GALNT2_Y538_A533D],0.654
2,KHCEDYVCSFN [DSC1_Y846_YF],1.06
3,GVYSRHFTTYD [CLCA1_Y661_Y661H],0.713
4,PSARTYCFKQE [KLHDC9_Y175_YF],0.944
5,LFHENYNAGTF [CFI_Y421_I416L_YF],0.72
6,ELAKYYKLHHI [AK7_Y391_N389K],0.961
7,SQQTFYPVSNM [ABCD1_Y181_R182P_YF],0.881
8,EFKDAYKFAAD [BRDT_Y335_YF],0.7
9,TFGVAYRAKDK [CDK11B_Y453_V452A_YF],0.842
10,TLQSMYGCDLG [HLA-B_Y123_V127L],0.674
11,SLDHPFEKPRK [INAVA_Y333_Y333F],1.01
12,AGADGYDFLAP [FOXL2_Y186_G187D_YF],0.883
13,VISNAYVDLAP [HSD17B4_Y602],0.858
14,PPNSPYIGSSP [KCNT1_Y740],0.783
15,FFTEEYVRAHP [DOCK2_Y1555_D1558A],0.728

# Continued, values first:
row,SH2 binding enrichment,Sequence
1,0.862,VYLGAYDRFLP [SLC22A5_Y486]
2,0.785,FLGEEYVKAVG [TF_Y674_YF]
3,0.697,MRNDLYQTPLH [NFKB1_Y582]
4,0.912,PEVSGYCHCAD [TG_Y234]
5,0.754,DPNQQYFIAMD [TBX15_Y159_H156N_YF]
6,0.777,GSERRYTREGG [PTPRN2_Y139_S140T]
7,0.824,KTSGNYLAVTG [WDR19_Y28]
8,0.756,SGGSSYGSGGC [KRT1_Y532_G537C]
9,1.01,PTDCVYVMPTV [MYO7A_Y1668_S1666C]
10,1.79,GRTNICKNKKD [SLC26A3_Y520_Y520C]
11,0.731,CEQELYSQLVY [WAS_Y102_W97C]
12,1.13,HRGFLYLAIEF [TEK_Y899_Y897F_YF]
13,0.893,AYRHGYFDEEM [PLEC_Y2971_R2969H]
14,1.15,KGIQLYDTPYE [SHB_Y297]

# Biological target: SHP2-C SH2
# Assay: as above
row,Sequence,SH2 binding enrichment
1,DLEKTYNTYRS [B4GALNT2_Y538_A533D],0.511
2,KHCEDYVCSFN [DSC1_Y846_YF],0.87
3,GVYSRHFTTYD [CLCA1_Y661_Y661H],0.714
4,PSARTYCFKQE [KLHDC9_Y175_YF],0.622
5,LFHENYNAGTF [CFI_Y421_I416L_YF],0.856
6,ELAKYYKLHHI [AK7_Y391_N389K],0.93
7,SQQTFYPVSNM [ABCD1_Y181_R182P_YF],0.644
8,EFKDAYKFAAD [BRDT_Y335_YF],0.779
9,TFGVAYRAKDK [CDK11B_Y453_V452A_YF],0.674
10,TLQSMYGCDLG [HLA-B_Y123_V127L],0.591
11,SLDHPFEKPRK [INAVA_Y333_Y333F],0.813
12,AGADGYDFLAP [FOXL2_Y186_G187D_YF],0.661
13,VISNAYVDLAP [HSD17B4_Y602],1.21
14,PPNSPYIGSSP [KCNT1_Y740],0.557
15,FFTEEYVRAHP [DOCK2_Y1555_D1558A],0.619

# Further lines, results first:
row,SH2 binding enrichment,Sequence
1,3.12,VYLGAYDRFLP [SLC22A5_Y486]
2,1.46,FLGEEYVKAVG [TF_Y674_YF]
3,0.55,MRNDLYQTPLH [NFKB1_Y582]
4,0.549,PEVSGYCHCAD [TG_Y234]
5,0.554,DPNQQYFIAMD [TBX15_Y159_H156N_YF]
6,0.563,GSERRYTREGG [PTPRN2_Y139_S140T]
7,0.654,KTSGNYLAVTG [WDR19_Y28]
8,0.536,SGGSSYGSGGC [KRT1_Y532_G537C]
9,0.716,PTDCVYVMPTV [MYO7A_Y1668_S1666C]
10,1.4,GRTNICKNKKD [SLC26A3_Y520_Y520C]
11,0.556,CEQELYSQLVY [WAS_Y102_W97C]
12,0.819,HRGFLYLAIEF [TEK_Y899_Y897F_YF]
13,0.771,AYRHGYFDEEM [PLEC_Y2971_R2969H]
14,1.1,KGIQLYDTPYE [SHB_Y297]

# Biological target: c-Src SH2
# Assay: as above
row,Sequence,SH2 binding enrichment
1,DLEKTYNTYRS [B4GALNT2_Y538_A533D],0.43
2,KHCEDYVCSFN [DSC1_Y846_YF],0.809
3,GVYSRHFTTYD [CLCA1_Y661_Y661H],0.477
4,PSARTYCFKQE [KLHDC9_Y175_YF],0.632
5,LFHENYNAGTF [CFI_Y421_I416L_YF],0.539
6,ELAKYYKLHHI [AK7_Y391_N389K],0.748
7,SQQTFYPVSNM [ABCD1_Y181_R182P_YF],0.466
8,EFKDAYKFAAD [BRDT_Y335_YF],0.459
9,TFGVAYRAKDK [CDK11B_Y453_V452A_YF],0.507
10,TLQSMYGCDLG [HLA-B_Y123_V127L],0.586
11,SLDHPFEKPRK [INAVA_Y333_Y333F],0.508
12,AGADGYDFLAP [FOXL2_Y186_G187D_YF],5.67
13,VISNAYVDLAP [HSD17B4_Y602],3.79
14,PPNSPYIGSSP [KCNT1_Y740],0.371
15,FFTEEYVRAHP [DOCK2_Y1555_D1558A],0.431

# Second part, the sequence after the results:
row,SH2 binding enrichment,Sequence
1,0.727,VYLGAYDRFLP [SLC22A5_Y486]
2,0.445,FLGEEYVKAVG [TF_Y674_YF]
3,0.381,MRNDLYQTPLH [NFKB1_Y582]
4,0.565,PEVSGYCHCAD [TG_Y234]
5,0.597,DPNQQYFIAMD [TBX15_Y159_H156N_YF]
6,0.485,GSERRYTREGG [PTPRN2_Y139_S140T]
7,0.427,KTSGNYLAVTG [WDR19_Y28]
8,0.538,SGGSSYGSGGC [KRT1_Y532_G537C]
9,0.642,PTDCVYVMPTV [MYO7A_Y1668_S1666C]
10,1.43,GRTNICKNKKD [SLC26A3_Y520_Y520C]
11,0.518,CEQELYSQLVY [WAS_Y102_W97C]
12,0.556,HRGFLYLAIEF [TEK_Y899_Y897F_YF]
13,0.634,AYRHGYFDEEM [PLEC_Y2971_R2969H]
14,4.71,KGIQLYDTPYE [SHB_Y297]
